Reference: PMC9769499

target: T1, CzcR (Pseudomonas aeruginosa PAO1) (UniProt Q9RLJ1); test: EMSA; conditions: Thermo Scientific EMSA kit per manufacturer's instructions; buffer, salt, pH and temperature not stated
T1 sequence: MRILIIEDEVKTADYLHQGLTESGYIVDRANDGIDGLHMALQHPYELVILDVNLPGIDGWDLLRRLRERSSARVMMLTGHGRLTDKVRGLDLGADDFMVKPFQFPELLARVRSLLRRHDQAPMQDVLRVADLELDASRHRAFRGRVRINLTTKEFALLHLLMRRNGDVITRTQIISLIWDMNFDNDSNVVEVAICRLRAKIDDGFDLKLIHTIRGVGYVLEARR

Sequence | binding
GCGCACATTGCTGATCAGTTGCGTGCGATCCACTCTCGACTCCCCTGCCCTGCGTATGGCGCCCGTGGGTGGGCGCCGAACAAACTTTTGACGCCGGAATGCGCGTCGGGCGGGTCATTGCAGGAACCGTTCCAACTTTTCAATTCATTGATTGAAAAGGGTTTTCGCCAA (double strand) [PflhA] | no binding
TACACAGTGTCCTGTTCGAAACCCGCGCCTGACGCGCGGGTTGAACGACTTGGCATGGTGCTTGCCCTATCGAAGGGATAGGGCAGTACATGCACGGTTTTTTGACGGAGATGGATTATGGCCGGTATCTCGATAGGAGTA (double strand) [PfliD] | no binding
GGTGATTTCCTCCAAAGGACCTATTTCGGTTACCTGAGCTTGCGATCTCTCGGCCTGCTTGCTCAGGTGCCCCAAGAATTCGCGTTCATGGTGTTTATCGGCGTTTCCCGGCGGAGCTTTAGAGAAAAAATCAACATTTTCTTTTTCTCTTCCTCTTCAGTGGGTTACATGCTTCGAAGAGGACTCGCCAATATCGGTCCTGAA (double strand) [PfliC] | no binding
CTGACTCATGACTCTTCCTCCAACAGCCGCGGCTTTTTTGACGCCGCCCGGCACTTTGCAGAGGAGTTAGCAACAAGGGTGCCAAGTCGGCCCCAAGGCCCGGCATCGGCGTTCGCCGCCAATGCCCGCGACCGCTGCAGGGTCCGTCCCTGCTCCGGTTATCGGCAGGCGCGCACGCTCGAACAG (double strand) [PfliE] | no binding
TTTCTTAGCCATGCCAAAAATCCGTCGCTATAGCGTCAAATGAAGGGTTTCACAGGGGCAGAGCAAGGGTTGTGCCATTTCTGCAACGCCGCCCCGCCTCCTGGGACCAGCCCCGGAGGGCTGTCCGAGATGATAGACGGCGCGGATATTACAGCCTGGCCACAGGAAATCATCCCCGTCTTTTGCGAAATTGCC (double strand) [PPA1442] | binds
CATCTGCTTCATACCTTGTGTTGTCGTCTTCCCGGAACGCCCCTTCCAGCGCTCTCCGGTATTGGCGGGAACGATGCGCCATCGCTCCCGGCCCGGCGGAAGCCACCTTCGCTTCCGTCACCCGCGCCACGCGCGGTTCTTCCCACGTCCTCA (double strand) [PfleN] | binds
GACGTACAGCATCTTGTCCATCGAATCCTCCAGGCACCGGCACAATCCGCCGGGCTTTCTTGCAGGTTATCCAGCAAGCGCCGTGCCAGAATTCGAAAAAACAATTAATACATTGATTTAAAAGGATTTTATAAAACAGAAAGCCTCCTTTCGGAGGCTTCGGGGGCAA (double strand) [PflgF] | binds
GCAACCGTTCGGAACATTCTTCCCGTCGGGGGTAGGCGAGCGACTTGCCCTGTGGAATAATACTGTCTACTTATACAGTTGTTCGTGGCCGTCCGGCCGCCCTGACTTCGCGAGGACTTCAATGGA (double strand) [recA fragment (PrecA)] | no binding
GTTCCAGGGGCTTGCCACCCTTGCCGGCAAGCGGAAGCGGCTTGCCGCTTGCCGCTTCCGGGTTACCCTTAAATAAACTCAAGTTATTGAATATAAAGGTTTTTAATAATTTGGCACGGGCCTTGCTGAAGTGTTGGCGACGAAAGCCACACCGGCAAACAGGTTCGCAGCCATGAGCATCAGTTTCGA (double strand) [PflgB] | binds
TCATGGGTGTCGGGCTCGGTGTCGGCGAGGCGGCGAACTGGCTTTTCGAGTATTCGGACTATAGTCTTGCGGCTAGCAACCGATAACAAGAGGGAGCCTAGCAGTCCCCCTCCTTATCCTGTTCATTTCGCACGTCCGGTCCTCATGTCAAAAATCATCGGC (double strand) [PmotA] | no binding
